pKd: −log10 of the molar value. Several values for one entry are separate records, joined by “and”; a condition that tells them apart may be missing. Identical values can stand only once.
Assays:
Conditions in all cases: EMSA: 50 mM Tris-HCl pH 7.5, 100 mM KCl, 10 mM MgCl2, room temperature, SPR: same buffer, 25 C, Tb footprinting: 50 mM Tris-HCl pH 8.0, 100 mM NaCl
[1] = molecular target: T1, Hfq wild type (Escherichia coli?) (UniProt P0A6X3); assay: EMSA
[2] = molecular target: T1, Hfq wild type; assay: SPR
[3] = molecular target: T1, Hfq wild type; assay: Tb(III) footprinting

T1 sequence (P0A6X3 whole entry): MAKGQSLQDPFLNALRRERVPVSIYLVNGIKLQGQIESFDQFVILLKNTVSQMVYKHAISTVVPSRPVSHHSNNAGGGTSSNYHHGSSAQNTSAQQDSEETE

## GGCAGUUAGUCAAUGACCUUUUGCACCGCUUUGCGGUGCUUUCCUGGAAGAACAAAAUGUCAUAUACACCGAUGAGUGAUCUCGGACAACAAGGGUUGUUCGACAUCACUCGGACAACAAAUAUUGGAUCCAGCUCG [fhlA53 mRNA]
[1]
  pKd: 7.15
[2]
  pKd: 7.37 and 7.30
[3]
  binding: binds

## fhlA53 mRNA
[1]; 10 mM Mg2+
  pKd: 7.15
[2]
  pKd: 7.37 and 7.30 and 8.30

## fhlA220 mRNA
[1]; Hfq hexamer, 10 mM Mg2+
  pKd: 7.82

## OxyS sRNA with fhlA220 mRNA
[1]
  pKd: 7.64

## GCAGCGUUACAUUCCCAUCCACUGGGGAAAGACGCGGCGCUGAUUGGUGAAGUGGUGGAACGUAAAGGUGUUCGUCUUGCCGGUCUGUAUGGCGUGAAACGAACCCUCGAUUUACCACACGCCGAACCGCUUCCGCGUAUAUGCUAAUAAAAUUCUAAAUCUCCUAUAGUUAGUCAAUGACCUUUUGCACCGCUUUGCGGUGCUUUCCUGGAAGAACAAAAUGUCAUAUACACCGAUGAGUGAUCUCGGACAACAAGGGUUGUUCGACAUCACUCGGACAAAUAUUGGAUCCGCUCGG [fhlA220 mRNA]
[1]
  pKd: 7.82

Source: article PMC2946933
